One assay concerns the target T1, Chimera #13 (Homo sapiens (Human), UniProt P49961 1-510).
T1 construct: Expressed on CHO cells
T1 sequence: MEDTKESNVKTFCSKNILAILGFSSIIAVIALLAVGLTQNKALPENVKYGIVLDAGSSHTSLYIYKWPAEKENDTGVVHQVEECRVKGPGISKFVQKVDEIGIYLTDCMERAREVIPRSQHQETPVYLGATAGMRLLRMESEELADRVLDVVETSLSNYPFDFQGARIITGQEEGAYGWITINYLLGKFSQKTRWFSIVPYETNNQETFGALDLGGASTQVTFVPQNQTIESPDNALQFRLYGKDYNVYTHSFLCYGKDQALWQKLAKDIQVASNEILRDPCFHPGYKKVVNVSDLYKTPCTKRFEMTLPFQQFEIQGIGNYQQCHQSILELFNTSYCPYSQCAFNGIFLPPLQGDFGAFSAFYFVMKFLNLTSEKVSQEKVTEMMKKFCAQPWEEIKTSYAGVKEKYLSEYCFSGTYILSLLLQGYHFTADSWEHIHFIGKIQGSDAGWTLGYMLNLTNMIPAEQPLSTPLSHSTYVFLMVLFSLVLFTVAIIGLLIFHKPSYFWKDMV
Description: FACS on CHO cells; human CD39 with mouse D99 and T154.

Assay [1] addresses T2, cynomolgus macaque (Macaca fascicularis) CD39 (Macaca fascicularis, UniProt P49961 7-510 (human entry)).
T2 construct: On engineered CHO cells and on primary cyno B cells and monocytes; also called cyno CD39; cCD39
T2 chain: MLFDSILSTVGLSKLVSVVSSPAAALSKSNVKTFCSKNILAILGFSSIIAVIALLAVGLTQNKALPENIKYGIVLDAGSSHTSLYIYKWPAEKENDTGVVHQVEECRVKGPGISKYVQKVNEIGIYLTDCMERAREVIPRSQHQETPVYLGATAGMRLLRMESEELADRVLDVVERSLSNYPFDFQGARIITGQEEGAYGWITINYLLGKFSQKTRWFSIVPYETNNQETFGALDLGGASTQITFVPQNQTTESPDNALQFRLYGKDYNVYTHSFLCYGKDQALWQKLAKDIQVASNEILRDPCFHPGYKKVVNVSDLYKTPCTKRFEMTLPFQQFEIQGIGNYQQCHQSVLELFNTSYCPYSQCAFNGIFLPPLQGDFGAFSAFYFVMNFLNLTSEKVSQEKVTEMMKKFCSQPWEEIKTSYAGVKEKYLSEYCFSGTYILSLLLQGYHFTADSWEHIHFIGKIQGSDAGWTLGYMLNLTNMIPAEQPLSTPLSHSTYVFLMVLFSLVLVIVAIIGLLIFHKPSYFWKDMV
Briefly: flow cytometry, 100 nM IgG, MFI on CHO-cCD39 / MFI on parental CHO.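 Also: antibodies bound to the cells for 30 min in PBS, then bound IgG was revealed with a fluorescent goat anti-human IgG secondary antibody, 20 min on ice.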

A further assay concerns the target T3, Chimera #2 (human, UniProt P49961 1-510).
T3 construct: Expressed on CHO cells; also called human-mouse Chimera #2
T3 chain: T1 sequence with D99N, E143Q, L144S, R147E, D150A, V151A, E153S, S157K, N158S
Briefly: FACS on CHO cells; human M1-E142 + mouse Q143-S158 ([..]) + human Y159-V510.

Substitutions are numbered along the chain they refer to.

B1: 31901 (antibody, human IgG4 S228P, kappa, V domains shown)
VH: QVQLVQSGAEVKKPGSSVKVSCKASGGTFSSLPISWVRQAPGQGLEWMGGIGFGTANYAQKFQGRVTITADESTSTAYMELSSLRSEDTAVYYCARGGAKYAGRYGMDVWGQGTTVTVSS
VL: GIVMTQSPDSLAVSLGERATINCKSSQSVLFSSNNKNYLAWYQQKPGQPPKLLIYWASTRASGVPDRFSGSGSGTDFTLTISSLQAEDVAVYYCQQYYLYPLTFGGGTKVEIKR
For B1, the binding result in the assay with Chimera #13 and with Chimera #2 was “no binding (tested: 15 ug/ml)” each time. Moreover, the “Cell Binding (FOB)” value in assay [1] was found to be 4660 fold over background.

B2: 31905 (antibody, human IgG4 S228P, kappa, V domains shown)
VH: B1 VH with S30P, L32N, P33A, G103R, R104T
VL: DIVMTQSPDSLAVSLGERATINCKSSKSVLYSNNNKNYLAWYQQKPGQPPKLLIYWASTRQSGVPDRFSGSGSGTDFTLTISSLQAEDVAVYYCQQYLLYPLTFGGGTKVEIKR
As for B2, the binding result with Chimera #13 and with Chimera #2 was “no binding (tested: 15 ug/ml)” in each case. Further, the “Cell Binding (FOB)” value in assay [1] came out at 4940 fold over background.

These data come from patent publication US20210403593A1 (TIZONA THERAPEUTICS, published 2021).
